T1: TNFR1 (Homo sapiens, UniProt P19438)
T1 chain: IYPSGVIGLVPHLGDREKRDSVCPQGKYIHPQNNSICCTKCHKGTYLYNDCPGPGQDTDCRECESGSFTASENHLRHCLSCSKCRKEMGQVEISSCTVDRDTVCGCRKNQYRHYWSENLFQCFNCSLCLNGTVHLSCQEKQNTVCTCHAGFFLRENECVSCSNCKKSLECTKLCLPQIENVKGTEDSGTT

B1: K85V (designed binder)
chain: SMEEEVEKAAKEYEKKKKEAIEKHLEKLKAKDKEAAERFLKELEEAAKEYAKDEAKTMSEEEAKRRAKKYKEKVLLSELSEEEQVEIKEAEEKLVRTILKYVEEAAK
B2: K71I (designed binder)
chain: B1 chain with K71I, V85K
B3: Y13L (designed binder)
chain: B1 chain with Y13L, V85K
B4: A105L (designed binder)
chain: B1 chain with V85K, A105L
B5: A36N (designed binder)
chain: B1 chain with A36N, V85K
B6: R96V (designed binder)
chain: B1 chain with V85K, R96V
B7: E37T (designed binder)
chain: B1 chain with E37T, V85K
B8: K18M (designed binder)
chain: B1 chain with K18M, V85K
B9: A105G (designed binder)
chain: B1 chain with V85K, A105G
B10: V74S (designed binder)
chain: B1 chain with V74S, V85K
B11: L76Y (designed binder)
chain: B1 chain with L76Y, V85K
B12: D32T (designed binder)
chain: B1 chain with D32T, V85K
B13: E19C (designed binder)
chain: B1 chain with E19C, V85K
B14: E42I (designed binder)
chain: B1 chain with E42I, V85K
B15: A20K (designed binder)
chain: B1 chain with A20K, V85K
B16: S80R (designed binder)
chain: B1 chain with S80R, V85K
B17: L94D (designed binder)
chain: B1 chain with V85K, L94D
B18: A10P (designed binder)
chain: B1 chain with A10P, V85K
B19: E61H (designed binder)
chain: B1 chain with E61H, V85K
B20: L79E (designed binder)
chain: B1 chain with L79E, V85K
B21: V95Q (designed binder)
chain: B1 chain with V85K, V95Q
B22: K17H (designed binder)
chain: B1 chain with K17H, V85K
B23: R38Y (designed binder)
chain: B1 chain with R38Y, V85K
B24: A30G (designed binder)
chain: B1 chain with A30G, V85K
B25: E12H (designed binder)
chain: B1 chain with E12H, V85K
B26: A35T (designed binder)
chain: B1 chain with A35T, V85K
B27: F39K (designed binder)
chain: B1 chain with F39K, V85K
B28: E5S (designed binder)
chain: B1 chain with E5S, V85K
B29: K33N (designed binder)
chain: B1 chain with K33N, V85K
B30: E4F (designed binder)
chain: B1 chain with E4F, V85K
B31: V95H (designed binder)
chain: B1 chain with V85K, V95H
B32: V74Y (designed binder)
chain: B1 chain with V74Y, V85K
B33: S77K (designed binder)
chain: B1 chain with S77K, V85K
B34: K15V (designed binder)
chain: B1 chain with K15V, V85K
B35: E54H (designed binder)
chain: B1 chain with E54H, V85K
B36: E7Y (designed binder)
chain: B1 chain with E7Y, V85K
B37: K16S (designed binder)
chain: B1 chain with K16S, V85K
B38: E91M (designed binder)
chain: B1 chain with V85K, E91M
B39: K27H (designed binder)
chain: B1 chain with K27H, V85K
B40: E92D (designed binder)
chain: B1 chain with V85K, E92D

Residue numbers refer to the chain shown, from its start. Names and notes keep the numbering of the source.

The test addresses T1, TNFR1. In words: yeast display SC50.
Consider B1, for which the “apparent Kd (screen)” value stood at 1.05 nM.

Regarding B2, the “apparent Kd (screen)” value stood at 0.539 nM.

As for B3, the “apparent Kd (screen)” value is 1.86 nM.

Regarding B4, the “apparent Kd (screen)” value turned out to be 1.86 nM.

On to B5, for which the “apparent Kd (screen)” value came to 2.73 nM.

Consider B6, for which the “apparent Kd (screen)” value turned out to be 0.869 nM.

B7: the “apparent Kd (screen)” value is 0.539 nM.

B8: the “apparent Kd (screen)” value turned out to be 1.05 nM.

Consider B9, for which the “apparent Kd (screen)” value is 0.446 nM.

Consider B10, for which the “apparent Kd (screen)” value was found to be 22.2 nM.

With B11, the “apparent Kd (screen)” value turned out to be 2.05 nM.

On to B12, for which the “apparent Kd (screen)” value was determined as 1.4 nM.

Take B13: the “apparent Kd (screen)” value was 0.446 nM.

With B14, the “apparent Kd (screen)” value stood at 6.43 nM.

In the case of B15, the “apparent Kd (screen)” value is 0.446 nM.

For the molecule B16, the “apparent Kd (screen)” value is 0.593 nM.

With B17, the “apparent Kd (screen)” value stood at 1.86 nM.

Take B18: the “apparent Kd (screen)” value turned out to be 11.4 nM.

On to B19, for which the “apparent Kd (screen)” value was 1.54 nM.

On to B20, for which the “apparent Kd (screen)” value was 18.3 nM.

B21: the “apparent Kd (screen)” value amounted to 11.4 nM.

In the case of B22, the “apparent Kd (screen)” value is 0.869 nM.

On to B23, for which the “apparent Kd (screen)” value was 0.49 nM.

B24: the “apparent Kd (screen)” value turned out to be 0.956 nM.

As to B25, the “apparent Kd (screen)” value amounted to 0.49 nM.

With B26, the “apparent Kd (screen)” value was 0.593 nM.

On to B27, for which the “apparent Kd (screen)” value worked out at 8.56 nM.

Regarding B28, the “apparent Kd (screen)” value came to 0.593 nM.

For the molecule B29, the “apparent Kd (screen)” value was determined as 1.05 nM.

For B30, the “apparent Kd (screen)” value is 1.69 nM.

Consider B31, for which the “apparent Kd (screen)” value was 11.4 nM.

As for B32, the “apparent Kd (screen)” value was found to be 9.41 nM.

For B33, the “apparent Kd (screen)” value turned out to be 4.83 nM.

Turning to B34, the “apparent Kd (screen)” value was found to be 1.05 nM.

With B35, the “apparent Kd (screen)” value came to 12.5 nM.

Consider B36, for which the “apparent Kd (screen)” value came out at 7.07 nM.

Take B37: the “apparent Kd (screen)” value turned out to be 3 nM.

With B38, the “apparent Kd (screen)” value worked out at 11.4 nM.

For B39, the “apparent Kd (screen)” value is 0.446 nM.

Take B40: the “apparent Kd (screen)” value came to 0.446 nM.

Source of the values: PMC12416549 (2024).
